Patent US20240116985A1, “STAPLED PEPTIDES AND METHODS THEREOF” (priority 2020, published 2024)
Starred links: 1 amine or outer side, 2 acyl side, 3 side chain; linkers in the order of their positions; H or OH if unused. Positions of bridges follow the written chain, without caps; N, C: chain ends. Non-standard residues stand in square brackets, D forms with d. Primed or numbered codes have the meaning given here. PyrS2″ = (S)-3-amino-1-((pent-4-en-1-yloxy)carbonyl)pyrrolidine-3-carboxylic acid (stapling residue), C=CCCCOC(=O)N1CC[C@@](N[*:1])(C(=O)[*:2])C1; B5(24) = 2-amino-2-(pent-4-en-1-yl)hept-6-enoic acid, 2,2-bis(4-pentenyl)glycine (stitching residue), C=CCCCC(CCCC=C)(N[*:1])C(=O)[*:2]; B5(4) = 2,2-bis(4-pentenyl)glycine = 2-amino-2-(pent-4-en-1-yl)hept-6-enoic acid (stitching residue), C=CCCCC(CCCC=C)(N[*:1])C(=O)[*:2]; B5(12) = 2-amino-2-(pent-4-en-1-yl)hept-6-enoic acid (two olefin side chains), C=CCCCC(CCCC=C)(N[*:1])C(=O)[*:2]; B5(19) = 2-amino-2-(pent-4-en-1-yl)hept-6-enoic acid (bis(4-pentenyl)glycine), C=CCCCC(CCCC=C)(N[*:1])C(=O)[*:2]; B5 = 2-amino-2-(pent-4-en-1-yl)hept-6-enoic acid, C=CCCCC(CCCC=C)(N[*:1])C(=O)[*:2]; Ala(morpholin-4-yl) = N[C@@H](CN1CCOCC1)C(=O)O; Phe(3-CONH2) = NC(=O)c1cccc(C[C@H](N)C(=O)O)c1; Phe(3-COOH) = N[C@@H](Cc1cccc(C(=O)O)c1)C(=O)O; Phe(3-Cl) = N[C@@H](Cc1cccc(Cl)c1)C(=O)O; Phe(3-OMe) = COc1cccc(C[C@H](N)C(=O)O)c1; Phe(2-Cl) = N[C@@H](Cc1ccccc1Cl)C(=O)O; Phe(3-F) = N[C@@H](Cc1cccc(F)c1)C(=O)O; Phe(3-Me) = Cc1cccc(C[C@H](N)C(=O)O)c1; Ala(cPent) = N[C@@H](CC1CCCC1)C(=O)O; Bta = N[C@@H](Cc1csc2ccccc12)C(=O)O; Lys(iPr) = CC(C)NCCCC[C@H](N)C(=O)O; αAllylPro = C=CC[C@@]1(C(=O)O)CCCN1; tBuAla = CC(C)(C)C[C@H](N)C(=O)O; 2Pal = N[C@@H](Cc1ccccn1)C(=O)O; 3Pal = N[C@@H](Cc1cccnc1)C(=O)O; 4Pal = N[C@@H](Cc1ccncc1)C(=O)O; 2Thi = N[C@@H](Cc1cccs1)C(=O)O; 3Thi = N[C@@H](Cc1ccsc1)C(=O)O; Cha = N[C@@H](CC1CCCCC1)C(=O)O; S8 = C=CCCCCCC[C@](C)(N)C(=O)O; PyrS2(4) = not defined here; hSer = N[C@@H](CCO)C(=O)O; Nle = CCCC[C@H](N)C(=O)O; Aib = CC(C)(N)C(=O)O

Assays:
[1] = target: full-length beta-Catenin (Uniprot ID P35222) (Homo sapiens (Human)) (UniProt P35222); experiment: fluorescence polarization competition, 5FAM-TCF4 10-53 probe on full-length beta-catenin
Target sequence in this assay (P35222 2-781 limits assumed): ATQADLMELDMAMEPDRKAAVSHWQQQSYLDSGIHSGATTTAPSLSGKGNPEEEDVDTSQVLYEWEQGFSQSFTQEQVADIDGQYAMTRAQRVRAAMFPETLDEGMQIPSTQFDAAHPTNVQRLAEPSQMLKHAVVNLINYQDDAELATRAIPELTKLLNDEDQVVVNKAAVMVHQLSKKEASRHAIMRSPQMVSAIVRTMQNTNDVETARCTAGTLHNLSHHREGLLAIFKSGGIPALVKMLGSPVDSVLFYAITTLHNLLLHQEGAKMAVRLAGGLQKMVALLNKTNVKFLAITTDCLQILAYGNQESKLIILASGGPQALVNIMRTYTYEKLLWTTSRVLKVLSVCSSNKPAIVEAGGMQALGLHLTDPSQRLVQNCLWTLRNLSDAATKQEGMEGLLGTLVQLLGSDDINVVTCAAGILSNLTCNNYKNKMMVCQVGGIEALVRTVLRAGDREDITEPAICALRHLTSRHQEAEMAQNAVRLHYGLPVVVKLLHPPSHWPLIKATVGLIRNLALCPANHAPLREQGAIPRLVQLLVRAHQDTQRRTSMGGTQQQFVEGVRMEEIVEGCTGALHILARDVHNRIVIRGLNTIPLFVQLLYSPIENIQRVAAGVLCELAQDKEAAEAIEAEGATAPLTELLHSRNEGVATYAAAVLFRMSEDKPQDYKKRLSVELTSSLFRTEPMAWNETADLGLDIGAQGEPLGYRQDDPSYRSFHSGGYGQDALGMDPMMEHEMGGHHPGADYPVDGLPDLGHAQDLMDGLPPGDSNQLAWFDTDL

[2] = target: full-length beta-Catenin (Uniprot ID P35222) (Homo sapiens (Human)) (UniProt P35222); experiment: fluorescence polarization competition, full-length beta-catenin, competitor 5FAM-TCF4 10-53
Target sequence in this assay (P35222 whole entry, the tested form may be a part): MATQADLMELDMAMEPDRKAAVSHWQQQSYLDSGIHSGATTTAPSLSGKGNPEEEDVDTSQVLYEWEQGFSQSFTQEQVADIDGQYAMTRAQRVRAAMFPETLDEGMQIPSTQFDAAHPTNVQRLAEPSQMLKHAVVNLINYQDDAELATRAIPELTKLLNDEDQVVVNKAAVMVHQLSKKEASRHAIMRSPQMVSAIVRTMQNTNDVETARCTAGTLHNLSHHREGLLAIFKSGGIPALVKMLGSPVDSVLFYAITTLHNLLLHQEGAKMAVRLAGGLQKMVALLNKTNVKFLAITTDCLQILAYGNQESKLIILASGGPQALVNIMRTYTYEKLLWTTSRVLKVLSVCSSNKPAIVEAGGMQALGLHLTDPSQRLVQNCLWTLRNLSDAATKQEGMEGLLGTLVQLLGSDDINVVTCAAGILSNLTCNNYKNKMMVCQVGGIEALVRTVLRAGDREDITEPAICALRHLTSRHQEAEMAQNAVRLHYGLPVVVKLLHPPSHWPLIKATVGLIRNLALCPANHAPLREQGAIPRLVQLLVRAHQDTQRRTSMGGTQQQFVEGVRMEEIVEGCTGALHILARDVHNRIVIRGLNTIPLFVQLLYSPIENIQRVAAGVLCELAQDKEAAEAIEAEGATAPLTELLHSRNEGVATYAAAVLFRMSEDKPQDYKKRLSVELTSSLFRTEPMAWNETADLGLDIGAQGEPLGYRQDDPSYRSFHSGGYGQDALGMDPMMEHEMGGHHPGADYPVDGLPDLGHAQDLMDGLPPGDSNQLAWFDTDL

[3] = target: full-length beta-Catenin (Uniprot ID P35222) (Homo sapiens (Human)) (UniProt P35222); experiment: fluorescence polarization competition; full-length beta-catenin with 5FAM-labeled TCF4 (residues 10-53) probe as competitor
Target sequence in this assay (P35222 whole entry, the tested form may be a part): as above

[4] = target: full-length beta-Catenin (Uniprot ID P35222) (Homo sapiens (Human)) (UniProt P35222); experiment: fluorescence polarization competition; 10 nM full-length beta-catenin, competitor 10 nM 5FAM-TCF4(10-53)
Target sequence in this assay (P35222 whole entry, the tested form may be a part): as above

[5] = target: full-length beta-Catenin (Uniprot ID P35222) (Homo sapiens (Human)) (UniProt P35222); experiment: fluorescence polarization competition; 10 nM full-length beta-catenin + 10 nM 5FAM-TCF4(10-53) probe, peptide titrated
Target sequence in this assay (P35222 2-781 limits assumed): as the sequence (P35222 2-781 limits assumed) above

[6] = target: full-length beta-Catenin (Uniprot ID P35222) (Homo sapiens (Human)) (UniProt P35222); experiment: fluorescence polarization competition; 10 nM full-length beta-catenin with 10 nM 5FAM-labeled TCF4 residues 10-53 probe (competitor displaced)
Target sequence in this assay (P35222 2-781 limits assumed): as above

B1: I-1130 (peptide)
peptide: Ac-[αAllylPro]D[tBuAla][B5(24)]DDAAFN[PyrS2″][Phe(2-Cl)][Bta][Lys(iPr)]-NH2
modifications: staple 1-4, 4-11
[1]
  EC50: 6 nM
[2]
  IC50: 6 nM

B2: I-1131 (peptide)
peptide: Ac-[αAllylPro]D[tBuAla][B5(24)]DD[Lys(iPr)]AFN[PyrS2″][Phe(2-Cl)][Bta]Q-NH2
modifications: staple 1-4, 4-11
[1]
  EC50: 7 nM
[2]
  IC50: 7 nM

B3: I-1132 (peptide)
peptide: Ac-[αAllylPro]D[tBuAla][B5(24)]DDA[Lys(iPr)]FN[PyrS2″][Phe(2-Cl)][Bta]Q-NH2
modifications: staple 1-4, 4-11
[1]
  EC50: 21 nM
[2]
  IC50: 21 nM

B4: I-1133 (peptide)
peptide: Ac-[αAllylPro]D[tBuAla][B5(4)]DDAAFN[PyrS2″][Phe(2-Cl)][Bta][Ala(morpholin-4-yl)]-NH2
modifications: staple 1-4, 4-11; also: earlier eluting staple isomer
[1]
  EC50: 5 nM
[2]
  IC50: 5 nM

B5: I-1134 (peptide)
peptide: Ac-[αAllylPro]D[tBuAla][B5(4)]DDAAFN[PyrS2″][Phe(2-Cl)][Bta][Ala(morpholin-4-yl)]-NH2
modifications: staple 1-4, 4-11; also: later eluting staple isomer
[1]
  EC50: 6 nM
[2]
  IC50: 6 nM

B6: I-1135 (peptide)
peptide: Ac-[αAllylPro]D[Cha][B5(4)]DDAAFS[PyrS2″][Phe(2-Cl)][Bta]T-NH2
modifications: staple 1-4, 4-11
[1]
  EC50: 20 nM
[2]
  IC50: 20 nM

B7: I-1136 (peptide)
peptide: Ac-[αAllylPro]D[Cha][B5(24)]DDAAFS[PyrS2″][Phe(2-Cl)][Bta][dT]-NH2
modifications: staple 1-4, 4-11
[1]
  EC50: 16 nM
[2]
  IC50: 16 nM

B8: I-384 (peptide)
peptide: Ac-[αAllylPro]DA[B5(4)]DEAAFV[S8][2Pal][Bta]Q-NH2
modifications: staple 1-4, 4-11; also: later eluting staple isomer
[3]
  IC50: 177 nM

B9: I-385 (peptide)
peptide: Ac-[αAllylPro]DA[B5(4)]DEAAFV[S8][4Pal][Bta]Q-NH2
modifications: staple 1-4, 4-11
[3]
  IC50: 3150 nM
[4]
  EC50: 3150 nM

B10: I-386 (peptide)
peptide: Ac-[αAllylPro]DA[B5]DEAA[2Pal]V[S8]F[Bta]Q-NH2
modifications: staple 1-4, 4-11; also: earlier eluting staple isomer
[3]
  IC50: 5000 nM
[4]
  EC50: 5000 nM

B11: I-387 (peptide)
peptide: Ac-[αAllylPro]DA[B5]DEAA[2Pal]V[S8]F[Bta]Q-NH2
modifications: staple 1-4, 4-11; also: later eluting staple isomer
[3]
  IC50: 2620 nM
[4]
  EC50: 2620 nM

B12: I-392 (peptide)
peptide: Ac-[αAllylPro]DA[B5]DEAA[Ala(cPent)]V[S8]F[Bta]Q-NH2
modifications: staple 1-4, 4-11
[3]
  IC50: 5000 nM
[4]
  EC50: 5000 nM

B13: I-393 (peptide)
peptide: Ac-[αAllylPro]DA[B5]DEAAFV[S8][Ala(cPent)][Bta]Q-NH2
modifications: staple 1-4, 4-11
[3]
  IC50: 1950 nM
[4]
  EC50: 1950 nM

B14: I-395 (peptide)
peptide: Ac-[αAllylPro]DA[B5(4)]DEAAFV[S8][Phe(3-Me)][Bta]Q-NH2
modifications: staple 1-4, 4-11
[3]
  IC50: 5000 nM
[4]
  EC50: 5000 nM

B15: I-401 (peptide)
peptide: Ac-[αAllylPro]DA[B5(4)]DEAA[2Thi]Q[S8][Phe(3-F)][Bta]Q-NH2
modifications: staple 1-4, 4-11
[5]
  EC50: 134 nM
[3]
  IC50: 134 nM

B16: I-1913 (peptide)
peptide: Ac-[αAllylPro]D[tBuAla][B5(12)]D[Phe(3-COOH)][Nle]AFL[PyrS2(4)][3Thi][Bta]F-NH2
modifications: staple 1-4, 4-11; not fully specified; printed as Ac-PL3-Asp-Npg-B5-Asp-3COOHF-nLeu-Ala-Phe-Leu-PyrS2-3Thi-BztA-Phe-NH2; reading uncertain
[6]
  IC50: 119 nM

B17: I-1914 (peptide)
peptide: Ac-[αAllylPro]D[tBuAla][B5(12)]D[Phe(3-COOH)][Aib]AFL[PyrS2(4)][3Thi][Bta]F-NH2
modifications: staple 1-4, 4-11; not fully specified; printed as Ac-PL3-Asp-Npg-B5-Asp-3COOHF-Aib-Ala-Phe-Leu-PyrS2-3Thi-BztA-Phe-NH2; reading uncertain
[6]
  IC50: 52 nM

B18: I-1916 (peptide)
peptide: Ac-[αAllylPro]D[tBuAla][B5(4)]D[Phe(3-COOH)]HAFL[PyrS2(4)][3Thi][Bta]A-NH2
modifications: staple 1-4, 4-11; not fully specified; printed as Ac-PL3-Asp-Npg-B5-Asp-3COOHF-His-Ala-Phe-Leu-PyrS2-3Thi-BztA-Ala-NH2; reading uncertain
[6]
  IC50: 8 nM

B19: I-1918 (peptide)
peptide: Ac-[αAllylPro]D[tBuAla][B5(4)]D[Phe(3-COOH)]QAFL[PyrS2(4)][3Thi][Bta]A-NH2
modifications: staple 1-4, 4-11; not fully specified; printed as Ac-PL3-Asp-Npg-B5-Asp-3COOHF-Gln-Ala-Phe-Leu-PyrS2-3Thi-BztA-Ala-NH2; reading uncertain
[6]
  IC50: 5 nM

B20: I-1922 (peptide)
peptide: Ac-[αAllylPro]N[Cha][B5(12)]DQ[Lys(iPr)]AF[hSer][PyrS2(4)]F[Bta][hSer]-NH2
modifications: staple 1-4, 4-11; not fully specified; printed as Ac-PL3-Asn-Cha-B5-Asp-Gln-iPrLys-Ala-Phe-Hse-PyrS2-Phe-BztA-Hse-NH2; reading uncertain
[6]
  IC50: 457 nM

B21: I-1923 (peptide)
peptide: Ac-[αAllylPro]N[Cha][B5(12)]DQ[Lys(iPr)]A[3Pal]N[PyrS2(4)]F[Bta][hSer]-NH2
modifications: staple 1-4, 4-11; not fully specified; printed as Ac-PL3-Asn-Cha-B5-Asp-Gln-iPrLys-Ala-3PyrA-Asn-PyrS2-Phe-BztA-Hse-NH2; reading uncertain
[6]
  IC50: 10000 nM

B22: I-1924 (peptide)
peptide: Ac-[αAllylPro]N[Cha][B5(12)]DQ[Lys(iPr)]A[Phe(3-Cl)]N[PyrS2(4)]F[Bta][hSer]-NH2
modifications: staple 1-4, 4-11; not fully specified; printed as Ac-PL3-Asn-Cha-B5-Asp-Gln-iPrLys-Ala-3C1F-Asn-PyrS2-Phe-BztA-Hse-NH2; reading uncertain
[6]
  IC50: 1610 nM

B23: I-1925 (peptide)
peptide: Ac-[αAllylPro]N[Cha][B5(19)]DQ[Lys(iPr)]A[Phe(3-CONH2)]N[PyrS2″]F[Bta][hSer]-NH2
modifications: staple 1-4, 4-11
[6]
  IC50: 475 nM

B24: I-1926 (peptide)
peptide: Ac-[αAllylPro]N[Cha][B5(19)]DQ[Lys(iPr)]A[Phe(3-OMe)]N[PyrS2″]F[Bta][hSer]-NH2
modifications: staple 1-4, 4-11
[6]
  IC50: 417 nM

B25: I-1927 (peptide)
peptide: Ac-[αAllylPro]N[Cha][B5(19)]DQ[Lys(iPr)]AFN[PyrS2″][3Pal][Bta][hSer]-NH2
modifications: staple 1-4, 4-11
[6]
  IC50: 5140 nM

B26: I-1928 (peptide)
peptide: Ac-[αAllylPro]N[Cha][B5(19)]DQ[Lys(iPr)]AFN[PyrS2″][Phe(3-Cl)][Bta][hSer]-NH2
modifications: staple 1-4, 4-11
[6]
  IC50: 887 nM

B27: I-1929 (peptide)
peptide: Ac-[αAllylPro]N[Cha][B5(19)]DQ[Lys(iPr)]AFN[PyrS2″][Phe(3-CONH2)][Bta][hSer]-NH2
modifications: staple 1-4, 4-11
[6]
  IC50: 74 nM

B28: I-1930 (peptide)
peptide: Ac-[αAllylPro]N[Cha][B5(19)]DQ[Lys(iPr)]AFN[PyrS2″][Phe(3-OMe)][Bta][hSer]-NH2
modifications: staple 1-4, 4-11
[6]
  IC50: 1560 nM

B29: I-1931 (peptide)
peptide: Ac-[αAllylPro]N[Cha][B5(19)]DQ[Lys(iPr)]SFN[PyrS2″]F[Bta][hSer]-NH2
modifications: staple 1-4, 4-11
[6]
  IC50: 1560 nM

B30: I-1933 (peptide)
peptide: Ac-[αAllylPro]N[Cha][B5(19)]D[hSer][Lys(iPr)]AFN[PyrS2″]F[Bta][hSer]-NH2
modifications: staple 1-4, 4-11
[6]
  IC50: 154 nM
